Experimental data as given in PMC5687603.

Key:
[1] = GSH/GSSG-Glo luminescence assay; conditions: glycan lost; control: Skl (wild type)
[2] = DHE staining, flow cytometry, HEK293; conditions: glycan lost; control: Skl (wild type)

B1: short-form Klotho (Skl): Skl3N (protein)
parent chain: MLARAPPRRPPRLVLLRLLLLHLLLLALRARCLSAEPGQGAQTWARFARAPAPEAAGLLHDTFPDGFLWAVGSAAYQTEGGWRQHGKGASIWDTFTHHSGAAPSDSPIVVAPSGAPSPPLSSTGDVASDSYNNVYRDTEGLRELGVTHYRFSISWARVLPNGTAGTPNREGLRYYRRLLERLRELGVQPVVTLYHWDLPQRLQDTYGGWANRALADHFRDYAELCFRHFGGQVKYWITIDNPYVVAWHGYATGRLAPGVRGSSRLGYLVAHNLLLAHAKVWHLYNTSFRPTQGGRVSIALSSHWINPRRMTDYNIRECQKSLDFVLGWFAKPIFIDGDYPESMKNNLSSLLPDFTESEKRLIRGTADFFALSFGPTLSFQLLDPNMKFRQLESPNLRQLLSWIDLEYNHPPIFIVENGWFVSGTTKRDDAKYMYYLKKFIMETLKAIRLDGVDVIGYTAWSLMDGFEWHRGYSIRRGLFYVDFLSQDKELLPKSSALFYQKLIEDNGFPPLPENQPLEGTFPCDFAWGVVDNYVQVSPLTKPSVGLLLPH
- other: antioxidant activity (raising of GSH/GSSG ratio) [1]: abolishes
- other: antioxidant activity (lowering of intracellular O2-) [2]: decreases

B2: short-form Klotho (Skl): SklN285A (protein)
parent chain: MLARAPPRRPPRLVLLRLLLLHLLLLALRARCLSAEPGQGAQTWARFARAPAPEAAGLLHDTFPDGFLWAVGSAAYQTEGGWRQHGKGASIWDTFTHHSGAAPSDSPIVVAPSGAPSPPLSSTGDVASDSYNNVYRDTEGLRELGVTHYRFSISWARVLPNGTAGTPNREGLRYYRRLLERLRELGVQPVVTLYHWDLPQRLQDTYGGWANRALADHFRDYAELCFRHFGGQVKYWITIDNPYVVAWHGYATGRLAPGVRGSSRLGYLVAHNLLLAHAKVWHLYNTSFRPTQGGRVSIALSSHWINPRRMTDYNIRECQKSLDFVLGWFAKPIFIDGDYPESMKNNLSSLLPDFTESEKRLIRGTADFFALSFGPTLSFQLLDPNMKFRQLESPNLRQLLSWIDLEYNHPPIFIVENGWFVSGTTKRDDAKYMYYLKKFIMETLKAIRLDGVDVIGYTAWSLMDGFEWHRGYSIRRGLFYVDFLSQDKELLPKSSALFYQKLIEDNGFPPLPENQPLEGTFPCDFAWGVVDNYVQVSPLTKPSVGLLLPH
- other: antioxidant activity (raising of GSH/GSSG ratio) [1]: abolishes
